US20230322893A1, “CD47 BINDER AND LIPOSOME COMPLEX FOR CANCER TREATMENT” (priority 2020, published 2023)

Target: recombinant CD47 protein (Homo sapiens, UniProt Q08722)
Test: SPR, CD47 conjugated to CM5 chip by EDC-NHS
Format: binding
Settings: CM5 chip, CD47 250 RU, 30 µL/minutes
Experimental: Specifically, the recombinant CD47 protein was conjugated to the surface of the CM5 chip by a target SPR reaction of 250 RU through an EDC-NHS reaction to be used, and for HBS-P, the sensogram obtained through a process of association for 3 minutes and dissociation for 10 minutes at a flow rate of 30 µL/minutes was analyzed with the BiaEvaluation software using a 1:1 binding model and global fitting.

Chain of recombinant CD47 protein (Q08722 19-323): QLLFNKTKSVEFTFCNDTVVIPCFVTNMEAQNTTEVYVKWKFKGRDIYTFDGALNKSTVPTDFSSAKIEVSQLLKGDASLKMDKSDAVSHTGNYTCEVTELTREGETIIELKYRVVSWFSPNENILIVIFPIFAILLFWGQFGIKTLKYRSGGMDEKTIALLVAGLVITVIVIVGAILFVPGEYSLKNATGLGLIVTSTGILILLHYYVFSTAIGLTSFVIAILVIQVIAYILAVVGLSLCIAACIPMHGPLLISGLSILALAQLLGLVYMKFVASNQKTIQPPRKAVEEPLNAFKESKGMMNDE

## Sirpα: pure Sirpα (SEQ ID NO: 25), water-soluble domain of the original CD47 ligand [reference compound]
  ka: 610000 M⁻¹ s⁻¹
  kd: 0.37 s⁻¹
